# Target: the molecule itself
# Assay: SEC
row,Protein,stoichiometry N
1,"mouse phosphomannomutase 2 (Pmm2) (enzyme, UniProt Q9Z2M7 1-242, looked up) MATLCLFDMDGTLTAPRQKITEEMDGFLQKLRQKTKIGVVGGSDFEKLQEQLGNDVVEKYDYVFPENGLVAYKDGKLLCKQNIQGHLGEDVIQDLINYCLSYIANIKLPKKRGTFIEFRNGMLNVSPIGRSCSQEERIEFYELDKKEHIRQKFVADLRKEFAGKGLTFSIGGQISIDVFPEGWDKRYCLRHLEHAGYKTIYFFGDKTMPGGNDHEIFTDPRTVGYTVTAPEDTRRICEGLFP",2
2,human phosphomannomutase 2 (hPMM2) (enzyme) MAAPGPALCLFDVDGTLTAPRQKITKEMDDFLQKLRQKIKIGVVGGSDFEKVQEQLGNDVVEKYDYVFPENGLVAYKDGKLLCRQNIQSHLGEALIQDLINYCLSYIAKIKLPKKRGTFIEFRNGMLNVSPIGRSCSQEERIEFYELDKKENIRQKFVADLRKEFAGKGLTFSIGGQISFDVFPDGWDKRYCLRHVENDGYKTIYFFGDKTMPGGNDHEIFTDPRTMGYSVTAPEDTRRICELLFS,2
